# B1: TPR t1 (parent)
# chain: GACCAAUCUGCCCUCAGAGCUCGAGAACAUCUUCGGAUGCAGAGGAGGCAGGCUUCGGUGGCGCGAUAGCGCCAACGUCCUCAACCUCCAAUGCAUCCCACCACAUGAUGAUGCCUGAAGAGCCUUGGUUUUUUG
# Variants of: B1
# Assay: polymerase ribozyme fitness, log enrichment relative to wild type (log ratio); higher = more active; in vitro selection for triplet polymerase activity
# How it was run: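 Mutant libraries of each subunit of a heterodimeric triplet polymerase ribozyme were built by PCR and transcribed. Each library went through one round of in vitro selection in triplicate: annealing with biotinylated primer, partner subunit and triplets, frozen incubation at −7 °C, gel excision of extended constructs, streptavidin-bead capture and RT-PCR. Input and output libraries were Illumina-sequenced; only genotypes with ≥10 input reads and ≥1 read per output were kept. Fitness is log2(genotype enrichment/wild-type enrichment), using inverse-variance-weighted replicate averages.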
row,Variant,polymerase ribozyme fitness (log ratio)
1,A16C G48A C73U,-3.7
2,C13G C72A C82A U96G A100U C115A,-3.76
3,U21G C22A A27U,-4.41
4,G44A C72A U78C A119G,0.491
5,A46U C72G C114G,-3.52
6,A5C G107A,-5.67
7,C8U C123A,0.745
8,A24G C40A G117A C124G,-4.17
9,G36A U55G C115A,-1.03
10,A29U G48C G113C U129A,-4.71
11,C12G G42C C70A U78A A91U,-5.9
12,G35A C88U A121U,-1.91
13,G35A G48U,-3.78
14,A41U A46U,-2.26
15,G44C U55A C70G U126G,-5.73
16,C49A C72U G77U C115A,-1.36
17,G42C U54G,-1.44
18,G63A C82G,-1.41
19,C62U C124G,1.52
20,C28A C56U A121G,-2.77
21,G60A C64A C80U C97A C115A U125A U126G,-7.2
22,G61A C79U C88A U129G,-1.53
23,A41C C64A A90G,-4.74
24,A46C C64A G69C C94A,-2.85

row,Variant,polymerase ribozyme fitness (log ratio)
1,C13U G35A G45A U87G,-4.53
2,C20A A46C C62U C86U,-3.97
3,C31G C124G,-6.98
4,C11G C80A G117C C123U,-7.43
5,C8G A74C,0.88
6,U21A G45U C101U U106C,-4.17
7,C20G C53G,-4.62
8,A6C C40G A95C,-5.15
9,C12U U59G,0.247
10,C28G G57C G63C C73U A83C C123A,-5.12
11,G42C C124G,0.37
12,C56U A95G C101A,-1.46
13,A50U C104U,-0.896
14,G93A C114G,-2.93
15,G10A C11U C40U C72G C104G C124U U133C,-5.5
16,G69U G93U G120A U125G U129G,-0.716
17,A46G G61C G69U C97A A111U,-5.77
18,A27U A29C,-4.78
19,G39U G42A G57U G117A C124G,-3.25
20,U9A A84U U92A U116G U132C,-4.07
21,A6G G52U,-1.27
22,C8A G63A,-0.863
23,G39U A74G,-1.85
24,G52A C73U,-0.414

row,Variant,polymerase ribozyme fitness (log ratio)
1,C20U A50G,-1.33
2,U7C C13G C72A,-0.177
3,C79U A91U,-2.48
4,A27U C62G,-5.76
5,G77C C102U,-2.02
6,A6G G60U U78C C104A U109A,-5.54
7,C8U C115U G117A,-0.753
8,A6U G57C G63A A90G,-0.878
9,U54G C56G C72A G93A C124A U125A,-2.75
10,A5U C11G C12U G61U A111C G113A,-4.88
11,A84G U130G,-1.3
12,G10A C97A,-4.44
13,C85U C97A C115G,-5.83
14,A43C C88U,-2.23
15,G71C U96C G127A,-3.25
16,G45A G61A,-0.513
17,C12G G58A G61A C62U C124G,0.824
18,G52A C53U C114U,-2.38
19,U78G C82G C99A U112G G128U,-6.81
20,C12U A46U A121C,-0.0492
21,C13U C49G A50U G58A A95G C114G,-5.63
22,G42A G45U C85A A111U,-5.93
23,C22G A26C G39U A50G C72U U112C,-4.01
24,C28U C70U,-2.13

row,Variant,polymerase ribozyme fitness (log ratio)
1,C62U G71U G120U,0.0266
2,A6C A18U,-2.13
3,C53U C56U A91U,-1.65
4,A24G U87A,-1.94
5,A18U G44U C88G C89A,-2.55
6,A27U G44C U96C,-4.49
7,C31G G36A G52A C56U C115G,-7.46
8,G44C G60U,-0.287
9,A16G G113A,-2.04
10,C13U A18G G52C,-3.22
11,A6G C70A,-2.41
12,G39U G61A C72G A103U,-5.55
13,U78G C123U,0.876
14,U33A G36U,-4.74
15,G120U U131A,-1.19
16,C13U G52C U59C C104U G120U G127A,-1.32
17,C4G A111U,-3.42
18,A46G G61A,0.179
19,A29G C124U,1.18
20,C49U C85G U96G,-2.99
21,C8G G19A C76A,-3.65
22,A6G C34G C56A C70G G120U,-6.8
23,C4G U7G U55A C99U U112G U132C,-4.94
24,A2U C11U G57U A91U,-4.18

row,Variant,polymerase ribozyme fitness (log ratio)
1,G58A A83U U106A,-1.14
2,A26G G51U,-5.11
3,G60C C82A A105G U131A,-4.31
4,A6U C15U C31G G51A U54A C73U C115U,-5.8
5,U9C A41C A91C,-1.02
6,A2C A5C C114G C124A,-3.41
7,C12A C89U C101A A111U,-5.17
8,G60C C85A,-0.933
9,G36U G44A G71U,-3.19
10,U38A G61A,-1.68
11,A43G G77A A83C C88G A121U G128U,-5.57
12,G47U C89U G122A,-4.51
13,C70A G117C,-3.77
14,G63A C98G,-6.74
15,A74U G77U C98U C102G,-6.8
16,A18U G128C,-4.63
17,C62U U112G C115A U126G,-2.54
18,A29G A105U,-4.23
19,A37U U54A A84U,-0.554
20,U9G A18U C40U,-0.788
21,A24G G48A A83G,-2.89
22,C34A C72A C102U,-2.07
23,G10A G110A,-1.12
24,U116A,-2.96

row,Variant,polymerase ribozyme fitness (log ratio)
1,G42U C53G G77U U126C,-2.18
2,C22A G48U G63A C94G G120A,-5.73
3,U81C,-0.208
4,G117A G120U,-1.9
5,C56G U109C,-3.23
6,G58U A68G,-3.5
7,A46C G60C A68U,-7.2
8,U7G C73A C80A G128C,-5.2
9,C13A A24G A29G C94A,-4.2
10,G69A C114A,-5.11
11,U9G G63C G71U C79A,-5.4
12,C8U A46G G48C C72G C80U A105C G122A,-5.9
13,C40G U55G,-0.761
14,U33C G39U,-5.33
15,C73G C97U A118U,-1.07
16,C11A G48U G60U C123A,0.672
17,C56A G122A,-0.936
18,A5U A41U G120C,-1.47
19,G69A C88G C102U,-6.62
20,G51U C56A G63C C98U C99U C124A U131G,-7.53
21,C20A C104A,-3.99
22,C8G G36A G44A C70G,-4.2
23,G61C U78G U130G,-4.62
24,A6C G39U,-1.84

row,Variant,polymerase ribozyme fitness (log ratio)
1,A24G C56G C72U C86U U92A U129C,-6.8
2,C15U G42U U87G C88A C101U G113U,-5.85
3,A2U A5C C62A G93C,-5.08
4,G60C A84C,-0.975
5,G69U C70G A100C,-1.23
6,C15U G110C,-4.52
7,G69A U96C,-3.08
8,G58A C82U C115A C124U,-0.385
9,G71A G77C C101G,-2.79
10,A46G A50C C85U A90G,-1.11
11,U21A G63A,-1.05
12,C40U G107C U109A,-6.59
13,A37U G63C G69U C97U C99U G110U,-5.81
14,C31U C123G G127A,-4.45
15,G48U G60U G61A A83G U129G,-3.05
16,G45U G48U A68C A74C A95G C97A C98U C104U G122U,-6.66
17,U78C C99A U106C,-4.95
18,C76U U92G,-3.28
19,A26G C53A U81G,-3.49
20,G36U G122A U131A,-1.83
21,C62U C73U,-0.0195
22,G63A U112A C114G G122U,-1.75
23,U9A A26G A50U,-1.68
